First the molecules themselves.
T1: Thp3;Csn12;Sem1 (Saccharomyces cerevisiae;Saccharomyces …, UniProt Q12049;P47130;O94742 1-470;1-423;1-89, ||)
T1 sequence 1: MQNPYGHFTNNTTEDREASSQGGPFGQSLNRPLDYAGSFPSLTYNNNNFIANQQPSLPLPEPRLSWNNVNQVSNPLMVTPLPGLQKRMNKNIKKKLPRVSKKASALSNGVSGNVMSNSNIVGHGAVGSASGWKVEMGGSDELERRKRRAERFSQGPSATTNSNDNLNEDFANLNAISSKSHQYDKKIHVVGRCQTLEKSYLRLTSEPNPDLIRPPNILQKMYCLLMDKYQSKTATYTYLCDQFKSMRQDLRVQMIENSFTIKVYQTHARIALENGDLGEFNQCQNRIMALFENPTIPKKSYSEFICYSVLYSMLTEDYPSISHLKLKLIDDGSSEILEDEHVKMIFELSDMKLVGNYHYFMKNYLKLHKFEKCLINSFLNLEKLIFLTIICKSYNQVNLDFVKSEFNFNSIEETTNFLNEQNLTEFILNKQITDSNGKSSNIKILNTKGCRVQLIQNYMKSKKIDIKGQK
T1 sequence 2: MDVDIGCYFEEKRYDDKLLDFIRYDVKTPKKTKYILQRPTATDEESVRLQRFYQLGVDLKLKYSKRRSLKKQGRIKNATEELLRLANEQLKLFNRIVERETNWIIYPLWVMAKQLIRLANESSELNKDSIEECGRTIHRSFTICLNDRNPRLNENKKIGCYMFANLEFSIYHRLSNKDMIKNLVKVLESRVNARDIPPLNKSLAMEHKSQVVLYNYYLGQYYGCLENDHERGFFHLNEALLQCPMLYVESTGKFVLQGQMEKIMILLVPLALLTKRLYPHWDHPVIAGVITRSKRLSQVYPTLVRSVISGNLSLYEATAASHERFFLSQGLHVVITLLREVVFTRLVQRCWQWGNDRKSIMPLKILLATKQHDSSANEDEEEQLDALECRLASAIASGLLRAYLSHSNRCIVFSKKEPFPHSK
T1 sequence 3: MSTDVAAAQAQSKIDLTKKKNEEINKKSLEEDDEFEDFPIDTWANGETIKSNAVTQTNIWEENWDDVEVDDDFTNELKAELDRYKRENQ

T2: Csn12 (binary complex);Sem1 (Saccharomyces cerevisiae;Saccharomyces …, UniProt P47130;O94742 1-423;1-89, |)
T2 sequence 1: T1 sequence 2
T2 sequence 2: T1 sequence 3

T3: Thp3;Csn12 R401E;Sem1 (Saccharomyces cerevisiae;Saccharomyces …, UniProt Q12049;P47130;O94742 1-470;1-423;1-89, |R401E|)
T3 sequence 1: T1 sequence 1
T3 sequence 2: T1 sequence 2 with R401E
T3 sequence 3: T1 sequence 3

T4: Thp3;Csn12 K415E/K416E;Sem1 (Saccharomyces cerevisiae;Saccharomyces …, UniProt Q12049;P47130;O94742 1-470;1-423;1-89, |K415E;K416E|)
T4 sequence 1: T1 sequence 1
T4 sequence 2: T1 sequence 2 with K415E, K416E
T4 sequence 3: T1 sequence 3

T5: Thp3 (186–470), truncated Thp3 (S. cerevisiae, UniProt Q12049 186-470)
T5 construct: Thp3 (Ypr045c), S. cerevisiae, residues 186-470 (HD and WH domains); 8×His-GST tag removed with TEV protease; also called truncated Thp3 (residues 186–470); not shown: His8, N-terminal, cleaved; GST, N-terminal, cleaved
T5 sequence (looked up): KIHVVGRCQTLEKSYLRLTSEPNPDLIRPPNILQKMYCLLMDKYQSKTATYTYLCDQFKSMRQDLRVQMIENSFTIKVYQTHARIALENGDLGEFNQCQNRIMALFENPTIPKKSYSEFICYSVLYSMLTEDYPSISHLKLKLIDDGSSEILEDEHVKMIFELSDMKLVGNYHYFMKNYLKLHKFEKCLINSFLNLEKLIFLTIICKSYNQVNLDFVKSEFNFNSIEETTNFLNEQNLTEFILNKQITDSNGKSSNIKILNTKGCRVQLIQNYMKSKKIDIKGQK

B1: T-rich ssDNA 25 (ssDNA)
DNA: TTTTATTTTATTTTTATTTTATTTT
B2: T-rich ssDNA 20 (ssDNA)
DNA: TTTTATTTTATTTTTATTTT
B3: Sem1, full length, untagged (natural protein, S. cerevisiae, UniProt O94742 1-89, looked up)
chain: T1 sequence 3
notes: Sem1, S. cerevisiae, full length, residues 1-89; second MCS of pETDuet-1; source: E. coli Rosetta (DE3), co-expressed; in cleared lysate (pull-down) and purified in the ternary complex (Ni-NTA, gel filtration, cation exchange)
B4: Csn12, full length, untagged (natural protein, S. cerevisiae, UniProt P47130 1-423, looked up)
chain: T1 sequence 2
notes: Csn12, S. cerevisiae, full length, residues 1-423; untagged Csn12 from pET-22b (with His8-GST-Thp3) or from the first MCS of pETDuet-1 (with Sem1 and His8-GST-Thp3); 7EWF is the selenomethionine form; source: E. coli Rosetta (DE3), co-expressed; in cleared lysate (pull-down) and purified in the ternary complex (Ni-NTA, gel filtration, cation exchange)
B5: AU-repeat ssRNA 25 (ssRNA)
RNA: AUAUAUAUAUAUAUAUAUAUAUAUA
B6: AU-repeat ssRNA 20 (ssRNA)
RNA: AUAUAUAUAUAUAUAUAUAU
B7: T-rich dsDNA 20 (dsDNA)
DNA 1: TTTTATTTTATTTTTATTTT
DNA 2: AAAATAAAAATAAAATAAAA

One series deals with T1, Thp3;Csn12;Sem1. Description: fluorescence polarization; FP: 20 mM Tris-HCl pH 8.0, 150 mM NaCl, 2 mM MgCl2, 25 C; 50 nM 5'-FAM probe, protein 0-25.6 uM, 30 min. Particulars: protein: recombinant;recombinant;recombinant, tags: 8xHis-GST N-terminal, removed by TEV;none;none, copies: 1;1;1, label: 5' FAM. Background: In fluorescence polarisation assays a small probe gives low polarisation when free and higher when bound to something large.

The target in series [1] is T2, Csn12 (binary complex);Sem1. Described as above. Particulars: protein: recombinant;recombinant; tags: 6xHis;none; copies: 1;1; label: 5' FAM.
For another series, the target named is T3, Thp3;Csn12 R401E;Sem1. Described as above. As to conditions: protein: recombinant;recombinant;recombinant; tags: 8xHis-GST N-terminal, removed by TEV;none;none; copies: 1;1;1; label: 5' FAM.
Series [2] addresses T4, Thp3;Csn12 K415E/K416E;Sem1. Described as above. Particulars: protein: recombinant;recombinant;recombinant; tags: 8xHis-GST N-terminal, removed by TEV;none;none; copies: 1;1;1; label: 5' FAM.
For series [3], the target named is B4. The experiment in a line: crystal structure + SEC; single copy of the ternary complex in the asymmetric unit; ratio said to be consistent with the gel filtration result. Particulars: both partners purified.
The target in series [4] is T5, Thp3 (186–470), truncated Thp3. The series is described as above. Particulars: both partners purified.

Changes are numbered by the printed parent chain.

With B1, the figures for the Kd (with Thp3;Csn12;Sem1; in series [1]) were 2.9 µM and 33.8 µM, respectively.

On to B2, for which the binding result (with Thp3;Csn12 R401E;Sem1; in series [2]) was “no binding” each time. The Kd (in general, the equilibrium constant for the complex coming apart) with Thp3;Csn12;Sem1 was found to be 3.7 µM.

Regarding B3, in series [3], the stoichiometry N (commonly a count of units in the complex or per binding partner) is 1.

Consider B4, for which the “stoichiometry N” value in series [4] worked out at 1.

On to B5, for which, in the series with Thp3;Csn12;Sem1, the equilibrium dissociation constant (Kd) turned out to be 1.6 µM.

On to B6, for which, in the series with Thp3;Csn12;Sem1, the Kd was 4.5 µM.

Turning to B7, the Kd with Thp3;Csn12;Sem1 (blunt) was found to be 1.1 µM.
